This note sets out measurements from patent publication US20140296146A1, “Thermostable Inhibitors of Activation of the Blood Clotting System Through Contact with Foreign Surfaces” (Synapse B.V., priority 2011, published 2014).

Test [1] in a line: TICA1: dependence of activity on disulfides (FIG. 5). As to conditions: relative to TICA1 with 3 disulfides = 100%. The text has this:
FIG. 5: Thermostable Inhibitor of Coagulation Activation (TICA1): Dependence on Disulfides.

For test [2], the target named is T1, h-FXIIa (human, UniProt P00748 20-615).
T1 construct: also called factor XIIa
T1 sequence (looked up): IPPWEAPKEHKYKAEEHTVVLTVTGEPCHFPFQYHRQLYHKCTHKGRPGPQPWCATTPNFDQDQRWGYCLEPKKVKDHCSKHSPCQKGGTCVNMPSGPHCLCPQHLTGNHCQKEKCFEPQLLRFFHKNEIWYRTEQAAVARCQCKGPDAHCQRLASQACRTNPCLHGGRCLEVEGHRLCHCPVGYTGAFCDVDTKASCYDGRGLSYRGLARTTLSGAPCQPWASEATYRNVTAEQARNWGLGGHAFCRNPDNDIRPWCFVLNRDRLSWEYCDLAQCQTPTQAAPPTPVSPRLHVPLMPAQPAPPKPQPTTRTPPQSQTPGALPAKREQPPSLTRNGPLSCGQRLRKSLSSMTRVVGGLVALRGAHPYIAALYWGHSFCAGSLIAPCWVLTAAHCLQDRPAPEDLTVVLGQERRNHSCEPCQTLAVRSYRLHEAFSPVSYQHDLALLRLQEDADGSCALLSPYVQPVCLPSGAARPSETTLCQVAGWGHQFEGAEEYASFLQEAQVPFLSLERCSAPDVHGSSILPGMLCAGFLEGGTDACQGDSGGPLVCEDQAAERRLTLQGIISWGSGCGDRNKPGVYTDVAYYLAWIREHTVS
Put plainly: S2302 hydrolysis by h-FXIIa (5.01 nM); inhibitor 30 min 95° C., against -80° C. Here is the method: (§1) Stock FXIIa was diluted 700× in BSA5. The inhibitor was diluted in BSA5 as indicated. Wells contained 70 μl diluted FXIIa (5 nM final), 70 μl inhibitor and 20 μl S2302 (475 or 462.5 μM final). The reaction was started after 5 min heating on the heating plate with S2302. Filters 405 nm and 490 nm reference. Found ΔmA/min was multiplied by 2.14 to get the figure for a 1 cm path.

Test [3] addresses T1, h-FXIIa. Put plainly: S2302 hydrolysis by h-FXIIa (5.01 nM); inhibitor at RT during 72 hrs. As to the method:
as §1

The target in test [4] is T1, h-FXIIa. In words: S2302 hydrolysis by h-FXIIa (5.01 nM); inhibitor at RT during 72 hrs, against -80° C. As to the method: as §1
Test [5] addresses T1, h-FXIIa. In words: S2302 hydrolysis by h-FXIIa (5 nM), fit of residual activity; dissociation constant of the complex. Here is the method: (§2) Stock FXIIa was diluted 700× in BSA5. The inhibitor was diluted in BSA5 as indicated. Wells contained 70 μl diluted FXIIa (5 nM final), 70 μl inhibitor and 20 μl S2302 (475 or 462.5 μM final). The reaction was started after 5 min heating on the heating plate with S2302. Filters 405 nm and 490 nm reference. Found mΔA/min was multiplied by 2.14 to get the figure for a 1 cm path.
(§3) in which E=[FXIIa], Ki is the dissociation constant, I=[Inhibitor], kcat and Km are Michaelis constants and S=[S2302].

The test system of another test is contact activation. Put plainly: Clotting time of blood taken on inhibitor only, without Ca2+ binding substance. As to conditions: tube heated for one hour in boiling water; 10 μg/ml. As to the method:
Indeed STI inhibited contact activation so well that blood taken on a solution not containing sodium citrate or another substance that binds Ca^2+ ions but only STI (10 μg/ml) remained fluid for over 45 minutes, under conditions where in absence of STI it would clot in less than 5 min. […] CTI under similar circumstances, at 10 μg/ml, lost much of its activity because a clotting time of <15 min. was observed.

Test [6] concerns the target T1, h-FXIIa. Put plainly: S2302 hydrolysis by h-FXIIa (5.01 nM); inhibitor kept at -80° C. (reference). Here is the method: as §1
In test [7] the target is T1, h-FXIIa. In words: S2302 hydrolysis by h-FXIIa (5.01 nM); inhibitor kept at -80° C. As to the method:
as §1

For test [8], the target named is T1, h-FXIIa. In words: S2302 hydrolysis by h-FXIIa (5.01 nM); inhibitor 30 min 95° C. Here is the method:
as §1

For test [9], the target named is T1, h-FXIIa. In words: S2302 hydrolysis by h-FXIIa, fit of residual activity. As to the method:
as §2, §3

Where only a bound is given, the exact number is not on record here.

For the molecule `CC[C@H](C)[C@@H]1NC(=O)[C@H](CCCNC(=N)N)NC(=O)[C@@H]2CCCN2C(=O)[C@@H](NC(=O)[C@@H](NC(=O)[C@@H](N)CCCNC(=N)N)C(C)C)CSSC[C@@H]2NC(=O)[C@H](CCC(=O)O)NC(=O)[C@H](C)NC(=O)[C@H](CC(C)C)NC(=O)[C@@H]3CSSC[C@@H](C(=O)NCC(=O)O)NC(=O)[C@H](Cc4ccc(O)cc4)NC(=O)CNC(=O)[C@H](Cc4c[nH]cn4)NC(=O)[C@H](CCC(=O)O)NC(=O)[C@H](CC(C)C)NC(=O)[C@H](CSSC[C@H](NC(=O)[C@H](CCCCN)NC(=O)[C@H](CCSC)NC(=O)[C@H](CC(C)C)NC1=O)C(=O)N[C@@H](CCCCN)C(=O)N[C@@H](CCCCN)C(=O)N[C@@H](CC(=O)O)C(=O)N[C@@H](CO)C(=O)N[C@@H](CC(=O)O)C(=O)N3)NC(=O)[C@H](C(C)C)NC2=O` [TICA1], in test [1], the activity stood at 100%.

B1: Corn trypsin inhibitor (other, UniProt P01088 29-138, looked up)
chain: SAGTSCVPGWAIPHNPLPSCRWYVTSRTCGIGPRLPWPELKRRCCRELADIPAYCRCTALSILMDGAIPPGPDAQLEGRLEDLPGCPREVQRGFAATLVTEAECNLATIS
notes: also called CTI
The term Ki denotes the dissociation constant of the complex between target and ligand, obtained from inhibition or displacement. Low values mean higher affinity, high ones lower affinity. In the case of B1, the figures for the “Res. Act. (%)” value with h-FXIIa [2], in the test with h-FXIIa [4] and with h-FXIIa [6] were 70%, 86% and 100%, respectively. Moreover, the Ki was 4.19 nM with h-FXIIa [3]; 2.9 nM with h-FXIIa [5]; 3.59 nM with h-FXIIa [7]; 5.1 nM in the test with h-FXIIa [8]; 2.9 nM with h-FXIIa [9]. For the same molecule, in the test with contact activation, the “clotting time of blood after sterilization of the tube containing inhibitor” value is under 15 min.
